In patent US7038112B2, “Fatty acid elongases” (Miami University, priority 1997, dated 2006):
Read-outs that look alike come from different tables or passages of the source.

Key:
[1] = In vitro fatty acid elongation assay with yeast microsomes, 18:0 acyl-CoA substrate; type: biochemical, Saccharomyces cerevisiae
Experimental: (§1) Transformed yeast cells were grown in the presence of either glucose or galactose (2% w/v) as described in Example 1. Cells were harvested by centrifugation at 5000×g for 10 min and washed with 10 ml ice cold isolation buffer (IB), which contains 80 mM Hepes-KOH, pH 7.2, 5 mM EGTA, 5 mM EDTA, 10 mM KC1, 320 mM sucrose and 2 mM DTT). Cells were then resuspended in enough IB to fill a 1.7 ml tube containing 700 μl of 0.5 μm glass beads and yeast microsomes were isolated from the cells essentially as described in Tillman, T. and Bell, R., J. Biol. Chem. 261:9144–9149 (1986). The microsomal membrane pellet was recovered by centrifugation at 252,000×g for 60 min. The pellet was rinsed by resuspending in 40 ml fresh IB and again recovered by centrifugation at 252000×g for 60 min. Microsomal pellets were resuspended in a minimal volume of IB, and the protein concentration adjusted to 2.5 μg μl^−1 by addition of IB containing 15% glycerol. Microsomes were frozen on dry ice and stored at −80° C. The protein concentration in microsomes was determined by the Bradford method (Bradford, 1976).
(§2) Fatty acid elongase activity was measured essentially as described in Hlousek-Radojcic, A. et al., Plant J. 8:803–809 (1995). Briefly, the standard elongation reaction mix contained 80 mM Hepes-KOH, pH 7.2, 20 mM MgCl2, 500 μM NADPH, 1 mM ATP, 100 μM malonyl-CoA, 10 μM CoA-SH and 15 μM radioactive acyl-CoA substrate. The radiolabeled substrate was either [1^−14C]18:1-CoA (50 uCi μmol^−1), [1^−14C]18:0-CoA (55 uCi μmol^−1), or [1^−14C]16:0-CoA (54 uCi μmol^−1). The reaction was initiated by the addition of yeast microsomes (5 μg protein) and the mixture incubated at 30° C. for the indicated period of time. The final reaction volume was 25 μl.
(§3) Methyl esters of the acyl-CoA elongation products were prepared as described in Example 1. Methyl esters were separated on reversed phase silica gel KC18 TLC plates (Whatman, […] thick), quantified by phosphorimaging, and analyzed on by ImageQuant software (Molecular Dynamics, Inc., Sunnyvale, Calif.). The detection limit for each product is about 0.001 nanomoles per min. per mg microsomal protein, depending on the phosphorimage exposure time.
(§4) Yeast cultures containing full-length EL1 in λYES and full-length EL2 in pYEUra3 were grown in the presence of galactose or glucose as described in Example 2. Microsomes were then prepared from each of the cultures and fatty acid elongation assays were carried out as described in Example 2.
(§5) In the first experiment, microsomes were prepared from galactose-induced cultures of EL1, EL2 and FAE1, and incubated with either [1-^14C] 18:0 acyl-CoA or [1-^14C] 18:1 acyl-CoA as substrate. The amounts of various reaction products synthesized after 30 minutes (min) were determined as described in Example 2.
In a second experiment, microsomes were prepared from galactose-induced and from glucose-repressed yeast cultures containing EL1 or EL2 coding sequences. The microsomal preparations were incubated with either 18:0 acyl-CoA or 18:1 acyl-CoA as substrate and the fatty acid reaction products determined as described above. […]

[2] = type: biochemical, Saccharomyces cerevisiae
Experimental: as §1, §2, §3, §4, §5
In a second experiment, microsomes were prepared from galactose-induced and from glucose-repressed yeast cultures containing EL1 or EL2 coding sequences. The microsomal preparations were incubated with either 18:0 acyl-CoA or 18:1 acyl-CoA as substrate and the fatty acid reaction products determined as described above.

[3] = In vitro fatty acid elongation assay with yeast microsomes, 16:0 acyl-CoA substrate; type: biochemical, Saccharomyces cerevisiae
Experimental: as §1, §2, §3

[4] = test system: Saccharomyces cerevisiae strain AB1380; experiment: Fatty acid composition of yeast cells transformed with pYEUra3/FAE1; type: cell-based; settings: galactose-induced yeast containing the FAE1 coding sequence
Experimental: Yeast transformed with pYEUra3 having FAE1 operably linked to the GAL1 promoter were grown in the presence of galactose or glucose and were analyzed for the expression of FAE1. As a control, yeast transformed with pYEUra3 containing no insert were also assayed. Analysis of such control preparations yielded fatty acid compositions and fatty acid elongation rates similar to those of yeast transformed with pYEUra3/FAE1. and grown with glucose as the carbon source.
The fatty acid composition of yeast cells grown in the presence of galactose was compared to that of cells grown in the presence of glucose, to determine if VLCFA were found in the galactose-induced cells.
Transformed yeast cells were grown overnight in YPD media at 30° C. with vigorous shaking. One hundred μl of the overnight culture were used to inoculate 40 ml of complete minimal uracil dropout media (CM-Ura) supplemented with either glucose or galactose (2% w/v). Cultures were grown at 30° C. to an OD600 of approximately 1.3 to 1.5. Cells were harvested by centrifugation at 5000×g for 10 min. Total lipids were extracted from the cells with 2 volumes of 4N KOH in 100% methanol for 60 min. at 80° C. […] Methyl esters were analyzed on an HP 5890 series II gas chromatograph equipped with a 5771MSD and 7673 auto injector (Hewlett-Packard, Cincinnati, Ohio.). […]

[5] = 18:0-CoA substrate, galactose-induced, 30 min, first experiment
[6] = 18:1-CoA substrate, galactose-induced, 30 min, first experiment
[7] = microsomes from galactose-induced cells

B1: FAE1: Known Arabidopsis FAE1 elongase β-ketoacyl synthase expressed in yeast, used as comparator (protein, UniProt Q38860 1-506, looked up)
3-ketoacyl-CoA synthase 18: MTSVNVKLLYRYVLTNFFNLCLFPLTAFLAGKASRLTINDLHNFLSYLQHNLITVTLLFAFTVFGLVLYIVTRPNPVYLVDYSCYLPPPHLKVSVSKVMDIFYQIRKADTSSRNVACDDPSSLDFLRKIQERSGLGDETYSPEGLIHVPPRKTFAASREETEKVIIGALENLFENTKVNPREIGILVVNSSMFNPTPSLSAMVVNTFKLRSNIKSFNLGGMGCSAGVIAIDLAKDLLHVHKNTYALVVSTENITQGIYAGENRSMMVSNCLFRVGGAAILLSNKSGDRRRSKYKLVHTVRTHTGADDKSFRCVQQEDDESGKIGVCLSKDITNVAGTTLTKNIATLGPLILPLSEKFLFFATFVAKKLLKDKIKHYYVPDFKLAVDHFCIHAGGRAVIDELEKNLGLSPIDVEASRSTLHRFGNTSSSSIWYELAYIEAKGRMKKGNKAWQIALGSGFKCNSAVWVALRNVKASANSPWQHCIDRYPVKIDSDLSKSKTHVQNGRS
- (%) 20:0 acyl-CoA product [1, 5]: 64.3%
- (%) 22:0 acyl-CoA product [1, 5]: 18.6%
- (%) 24:0 acyl-CoA product [1, 5]: 10.7%
- (%) 26:0 acyl-CoA product [1, 5]: 6.3%
- (%) Total acyl-CoA products [1, 5]: 100.0%
- Rate, 20:0 acyl-CoA product [1, 5]: 0.369 Nanomoles/minute/mg of microsomal protein
- Rate, 22:0 acyl-CoA product [1, 5]: 0.113 Nanomoles/minute/mg of microsomal protein
- Rate, 24:0 acyl-CoA product [1, 5]: 0.065 Nanomoles/minute/mg of microsomal protein
- Rate, 26:0 acyl-CoA product [1, 5]: 0.038 Nanomoles/minute/mg of microsomal protein
- Rate, Total acyl-CoA products [1, 5]: 0.585 Nanomoles/minute/mg of microsomal protein
- synthesis of 20:0 CoA from the 18:0 CoA substrate ([1]; microsomes from induced yeast): 5.1 nmol mg protein^−1
- increase in 18:1 CoA elongation, microsomes from induced vs uninduced cells [2]: about 18 fold
- (%) 20:1 acyl-CoA product [2, 6]: 84.6%
- (%) 22:1 acyl-CoA product [2, 6]: 15.4%
- (%) 24:1 acyl-CoA product [2, 6]: 0.0%
- (%) 26:1 acyl-CoA product [2, 6]: 0.0%
- (%) Total acyl-CoA products [2, 6]: 100.0%
- Rate, 20:1 acyl-CoA product [2, 6]: 1.131 Nanomoles/minute/mg of microsomal protein
- Rate, 22:1 acyl-CoA product [2, 6]: 0.206 Nanomoles/minute/mg of microsomal protein
- Rate, 24:1 acyl-CoA product [2, 6]: 0.0 Nanomoles/minute/mg of microsomal protein
- Rate, 26:1 acyl-CoA product [2, 6]: 0.0 Nanomoles/minute/mg of microsomal protein
- Rate, Total acyl-CoA products [2, 6]: 1.337 Nanomoles/minute/mg of microsomal protein
- rate of elongation of oleoyl-CoA relative to rate of elongation of 16:0-CoA [2, 7]: about 2 fold
- rate of elongation of oleoyl-CoA relative to rate of elongation of 18:0-CoA [2, 7]: ~3 fold
- FAE1 elongase KAS activity, difference in 16:0 elongation rates between induced and uninduced microsomes ([3]; induced minus uninduced): 5.7 nmol mg protein^−1
- 16:0-CoA elongation by microsomes from induced cells, higher than uninduced cells ([3]; induced vs uninduced): more than 50%
- total rate of elongation of [14C]16:0-CoA ([3]; microsomes from induced cells, at 30 min): 15.8 nmol mg protein^−1
- synthesis of 20:0 CoA from the 16:0 CoA substrate ([3]; microsomes from induced yeast): 4.2 nmol mg protein^−1
- very long chain fatty acids in transformed yeast cells [4]: appearance of both 20:1 and 22:1 acyl-CoA products
